Test results reported in paper PMC12176259, “Bacterial transcriptional repressor NrdR – a flexible multifactorial nucleotide sensor”.

T1: NrdR (EcoNrdR) (Escherichia coli K-12 MG1655, UniProt P0A8D0 1-149)
T1 sequence: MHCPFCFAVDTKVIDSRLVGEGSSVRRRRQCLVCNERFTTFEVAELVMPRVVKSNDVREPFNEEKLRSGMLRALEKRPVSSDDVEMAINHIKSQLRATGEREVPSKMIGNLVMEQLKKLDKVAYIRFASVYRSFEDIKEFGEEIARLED

B1: ribX promoter (dsDNA)
DNA 1: AGCATCGATCCTTTATCTCAAAAGCGTTGCGCCTTTGTTGTATCGTCAGTTCAGGGT
DNA 2: ACCCTGAACTGACGATACAACAAAGGCGCAACGCTTTTGAGATAAAGGATCGATGCT
B2: EcoEF7,3 (dsDNA)
DNA 1: GCACTATTTGCTATATATTGTGTGGTTGAATCTTTTTTCAACTACATCTAGTATCTC
DNA 2: GAGATACTAGATGTAGTTGAAAAAAGATTCAACCACACAATATATAGCAAATAGTGC

Assays:
[1] = molecular target: T1, NrdR (EcoNrdR); assay: MST; ATP + dATP; MST: 17 mM Tris-HCl pH 8.6, 100 mM NaCl, 7 mM MgCl2, 0.33 mM TCEP, 0.025% Tween-20, nucleotides 1 mM each, 5 nM Cy5-DNA, room temperature; settings: protein: recombinant; tags: C-terminal His6; chain copies: 4; label: 5'-Cy5 sense strand; blunt
[2] = molecular target: T1, NrdR (EcoNrdR); assay: cryo-EM structure (4 A); ATP + dATP 0.5 mM each, 5 mM Mg2+, Zn2+; NrdR tetramer; MST: 17 mM Tris-HCl pH 8.6, 100 mM NaCl, 7 mM MgCl2, 0.33 mM TCEP, 0.025% Tween-20, nucleotides 1 mM each, 5 nM Cy5-DNA, room temperature; settings: protein: recombinant; tags: C-terminal His6; chain copies: 4; blunt

Binder	binding result [1]	binding result [2]
B1	no binding	–
B2	–	binds
